Where no end group is shown, it is not given here.
Key:
[1] = target: T1, 6×His-tagged recombinant PHB2/REA protein (human, UniProt Q99623 77-244); assay: fluorescence correlation spectroscopy, 10 nM FITC-tagged peptide with His-PHB2/REA at various concentrations; fluorescence correlation spectroscopy; 10 nM FITC-tagged peptide in solution
T1 construct: Expressed in Escherichia coli BL21 star (DE3); also called His-PHB2/REA; 6×His-PHB2/REA; not shown: hexahistidine tag, thioredoxin (TrxA) and TEV protease cut site at the amino terminal (pTAT6 vector)

[2] = target: T1, 6×His-tagged recombinant PHB2/REA …; assay: fluorescence correlation spectroscopy, 10 nM FITC-tagged ERAP1-peptide with rising 6xHis-PHB2/REA; same constant as the 14.4 µM of the text, in mass units
[3] = target: T1, 6×His-tagged recombinant PHB2/REA …; assay: Ni-resin pull-down of 10 µg His-PHB2 mixed with lysate of Flag-tagged ERAP1 expressing cells and HA-peptide; blot for Peptide
[4] = target: inherent PHB2/REA (prohibitin 2 / Repressor of Estrogen Activity) (human, UniProt Q99623 2-299, limits assumed); assay: cell-based or functional assay
[5] = target: T1, 6×His-tagged recombinant PHB2/REA …; assay: fluorescence correlation spectroscopy, 10 nM FITC-tagged ERAP1-scramble peptide with rising 6xHis-PHB2/REA
[6] = target: T2, inherent ERAP1 (Estrogen Receptor Activity-regulated Protein 1) (human, UniProt Q5TH69 1-2177); assay: co-IP from cytoplasm and nuclear fractions of KPL-3C cells, 24 h, 10 nM E2 and/or 10 µM HA-tagged ERAP1-peptide; blot anti-HA
T2 construct: Endogenous protein immunoprecipitated from cell lysates; also called ERAP1 polypeptide; BIG3

[7] = target: T1, 6×His-tagged recombinant PHB2/REA …; assay: Biacore 3000, 6×His-tagged recombinant PHB2/REA immobilized on a CM5 chip, peptide injected; Biacore; His-PHB2/REA on the chip, HA-tagged peptide injected
[8] = target: T3, HA-PHB2 (HA-tagged PHB2 construct) (human, UniProt Q99623 1-299, limits assumed); assay: COS-7 co-transfection with the PHB2/REA construct, IP and immunoblot
T3 construct: Expressed by transfection in COS-7 or HEK293T cells; also called PHB2/REA construct; HA-tagged PHB2/REA (WT); not shown: HA tag

[9] = target: T3, HA-PHB2 (HA-tagged PHB2 construct); assay: co-immunoprecipitation from COS-7 cells, IP anti-FLAG and IP anti-HA
[10] = target: T3, HA-PHB2 (HA-tagged PHB2 construct); assay: co-immunoprecipitation from COS-7 cells, IP anti-FLAG, blot anti-HA
[11] = target: T3, HA-PHB2 (HA-tagged PHB2 construct); assay: co-immunoprecipitation from COS-7 cells, IP anti-HA, blot anti-FLAG
[12] = target: EGFR (human, UniProt P00533 25-1210); assay: anti-ERα co-IP from the cytoplasm fraction of BT-474 cells, 24 h, 10 nM E2 and/or 10 µM Peptide
[13] = target: Her2 (human, UniProt P04626 23-1255); assay: as above
[14] = target: T4, NcoR (human, UniProt O75376 1-2440, limits assumed); assay: co-IP from the nuclear fraction of KPL-3C cells, 24 h, 10 nM E2 and/or 10 µM Peptide
T4 construct: also called transcription coupling suppression factor NcoR
T4 sequence (O75376 whole entry): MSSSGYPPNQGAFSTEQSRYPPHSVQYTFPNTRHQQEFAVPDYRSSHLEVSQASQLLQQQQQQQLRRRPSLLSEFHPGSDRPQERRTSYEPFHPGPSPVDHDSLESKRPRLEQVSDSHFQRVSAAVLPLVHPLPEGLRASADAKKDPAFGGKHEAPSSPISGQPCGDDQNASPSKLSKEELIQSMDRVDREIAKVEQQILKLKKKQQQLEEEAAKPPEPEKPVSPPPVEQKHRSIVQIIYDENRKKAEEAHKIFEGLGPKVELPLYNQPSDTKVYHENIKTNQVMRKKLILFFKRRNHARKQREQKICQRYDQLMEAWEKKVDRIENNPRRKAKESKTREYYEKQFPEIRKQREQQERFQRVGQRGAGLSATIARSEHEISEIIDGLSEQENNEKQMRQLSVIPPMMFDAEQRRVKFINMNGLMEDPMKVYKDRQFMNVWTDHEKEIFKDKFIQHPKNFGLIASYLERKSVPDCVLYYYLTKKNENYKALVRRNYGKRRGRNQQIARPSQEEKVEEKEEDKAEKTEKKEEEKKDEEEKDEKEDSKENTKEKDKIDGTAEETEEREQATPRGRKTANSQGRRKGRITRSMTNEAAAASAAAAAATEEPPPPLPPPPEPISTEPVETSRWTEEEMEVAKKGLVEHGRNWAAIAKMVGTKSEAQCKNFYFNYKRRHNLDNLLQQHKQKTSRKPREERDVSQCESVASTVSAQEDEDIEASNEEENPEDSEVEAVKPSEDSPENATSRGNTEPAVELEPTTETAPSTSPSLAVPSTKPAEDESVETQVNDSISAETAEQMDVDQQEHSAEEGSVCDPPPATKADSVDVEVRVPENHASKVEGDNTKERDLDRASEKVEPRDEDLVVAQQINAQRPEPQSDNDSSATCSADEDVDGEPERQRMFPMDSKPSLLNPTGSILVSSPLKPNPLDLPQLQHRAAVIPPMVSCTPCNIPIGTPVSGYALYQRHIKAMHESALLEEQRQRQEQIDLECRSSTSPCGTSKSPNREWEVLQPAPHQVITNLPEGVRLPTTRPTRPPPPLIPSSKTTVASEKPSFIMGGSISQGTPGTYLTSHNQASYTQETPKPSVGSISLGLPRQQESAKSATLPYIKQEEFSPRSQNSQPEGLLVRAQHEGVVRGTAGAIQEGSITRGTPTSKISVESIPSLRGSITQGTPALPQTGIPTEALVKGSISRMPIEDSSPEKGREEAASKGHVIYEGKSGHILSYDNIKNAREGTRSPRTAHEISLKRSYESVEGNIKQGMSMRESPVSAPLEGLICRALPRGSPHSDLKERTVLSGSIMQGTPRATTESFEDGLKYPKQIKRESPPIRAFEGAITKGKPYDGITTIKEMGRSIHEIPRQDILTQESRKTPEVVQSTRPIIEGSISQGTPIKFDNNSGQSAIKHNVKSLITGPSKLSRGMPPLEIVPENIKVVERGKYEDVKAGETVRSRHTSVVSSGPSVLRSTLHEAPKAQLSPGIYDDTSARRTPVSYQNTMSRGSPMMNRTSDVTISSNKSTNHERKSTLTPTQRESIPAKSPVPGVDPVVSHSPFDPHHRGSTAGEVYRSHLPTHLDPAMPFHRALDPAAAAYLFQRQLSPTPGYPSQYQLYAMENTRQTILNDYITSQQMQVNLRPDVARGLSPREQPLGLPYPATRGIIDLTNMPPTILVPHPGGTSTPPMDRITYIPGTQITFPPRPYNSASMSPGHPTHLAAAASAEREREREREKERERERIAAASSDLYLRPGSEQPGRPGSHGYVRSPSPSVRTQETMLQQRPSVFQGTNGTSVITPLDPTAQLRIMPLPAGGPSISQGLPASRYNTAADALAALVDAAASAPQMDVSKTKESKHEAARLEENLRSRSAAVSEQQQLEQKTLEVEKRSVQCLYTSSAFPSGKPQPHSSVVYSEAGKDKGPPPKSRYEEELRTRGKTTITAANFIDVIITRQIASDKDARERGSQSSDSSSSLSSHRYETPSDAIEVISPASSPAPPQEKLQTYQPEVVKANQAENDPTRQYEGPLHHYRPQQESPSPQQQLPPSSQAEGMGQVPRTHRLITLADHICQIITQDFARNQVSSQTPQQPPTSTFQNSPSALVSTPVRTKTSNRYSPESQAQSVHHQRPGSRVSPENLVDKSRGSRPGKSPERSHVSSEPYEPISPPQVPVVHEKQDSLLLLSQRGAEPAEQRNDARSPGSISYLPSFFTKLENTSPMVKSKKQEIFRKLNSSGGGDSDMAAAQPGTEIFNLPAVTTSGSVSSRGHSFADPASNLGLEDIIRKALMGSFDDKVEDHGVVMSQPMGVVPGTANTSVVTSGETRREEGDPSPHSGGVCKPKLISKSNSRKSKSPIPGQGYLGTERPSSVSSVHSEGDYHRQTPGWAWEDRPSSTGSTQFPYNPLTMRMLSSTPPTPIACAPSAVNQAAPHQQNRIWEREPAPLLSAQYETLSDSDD

T1 sequence (Q99623 77-244): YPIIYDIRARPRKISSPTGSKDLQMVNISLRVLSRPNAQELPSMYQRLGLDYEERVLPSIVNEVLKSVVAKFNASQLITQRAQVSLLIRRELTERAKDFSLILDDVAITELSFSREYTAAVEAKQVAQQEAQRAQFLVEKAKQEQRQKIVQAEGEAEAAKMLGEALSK
T3 sequence (Q99623 whole entry): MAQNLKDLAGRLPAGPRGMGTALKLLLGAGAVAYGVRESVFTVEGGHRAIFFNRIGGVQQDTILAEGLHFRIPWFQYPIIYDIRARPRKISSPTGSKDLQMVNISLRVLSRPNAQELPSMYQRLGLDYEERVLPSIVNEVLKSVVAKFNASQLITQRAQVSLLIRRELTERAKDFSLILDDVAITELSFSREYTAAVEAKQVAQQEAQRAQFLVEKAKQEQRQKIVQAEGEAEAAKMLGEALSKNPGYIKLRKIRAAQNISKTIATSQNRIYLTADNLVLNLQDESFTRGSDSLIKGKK
Sequence of inherent PHB2/REA (prohibitin 2 / Repressor of Estrogen Activity) (Q99623 2-299 limits assumed): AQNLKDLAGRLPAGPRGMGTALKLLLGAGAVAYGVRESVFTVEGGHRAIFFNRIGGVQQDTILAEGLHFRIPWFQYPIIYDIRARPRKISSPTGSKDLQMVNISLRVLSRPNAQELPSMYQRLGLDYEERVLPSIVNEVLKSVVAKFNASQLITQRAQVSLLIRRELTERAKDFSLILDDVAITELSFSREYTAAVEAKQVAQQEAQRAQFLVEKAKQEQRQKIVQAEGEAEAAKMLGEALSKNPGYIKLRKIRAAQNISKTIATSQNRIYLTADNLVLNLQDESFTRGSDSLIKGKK

RRRRRRRRRRRQMLSDLTLQLRQR (also: FITC tag, position not given here) [FITC-tagged ERAP1-peptide]
Kd [1]: 14.4 µM
Kd [2]: 480 µg/mL

B1: Scramble (HA-Peptide) (peptide)
single chain: DRQLQLSTLQRML
notes: it is detected in the Peptide blot, so it carries the tag; also called HA-tagged ERAP1-scramble peptide
binding result [3]: no binding (tested: 100 µM)

RRRRRRRRRRRQMLSDLTLQLRQR [ERAP1-peptide (11R-bound dominant negative peptide, ERAP1 165-177)]
IC50 of suppression effect for the cell proliferation in MCF-7 cells for 24 hours [4]: 2.18 µM

B2: scrPeptide (peptide)
peptide: DRQLQLSTLQRML
modifications: also: FITC tag, position not given here
notes: also called FITC-tagged ERAP1-scramble peptide
binding result [5]: no binding (tested: about 1.25 mg/mL)

B3: HA-tagged ERAP1-peptide (peptide)
peptide: RRRRRRRRRRRQMLSDLTLQLRQR
notes: ERAP1-peptide to which an HA tag was added; also called ERAP1-HA-peptide; HA tag-added peptide; not shown: HA tag
binding result [6]: no binding (tested: 10 µM)
Kd [7]: 18.9 µM

B4: ERAP1 alanine mutant of Q165 and D169 (Q165A, D169A) (other)
chain: MEEILRKLQKEASGSKYKAIKESCTWALETLGGLDTIVKIPPHVLREKCLLPLQLALESKNVKLAQHALAGMQKLLSEERFVSMETDSDEKQLLNQILNAVKVTPSLNEDLQVEVMKVLLCITYTPTFDLNGSAVLKIAEVCIETYISSCHQRSINTAVRATLSAMLSALTLQLRQRQENTIIENPDVPQDFGNQGSTVESLCDDVVSVLTVLCEKLQAAINDSQQLQLLYLECILSVLSSSSSSMHLHRRFTDLIWKNLCPALIVILGNPIHDKTITSAHTSSTSTSLESDSASPGVSDHGRGSGCSCTAPALSGPVARTIYYIAAELVRLVGSVDSMKPVLQSLYHRVLLYPPPQHRVEAIKIMKEILGSPQRLCDLAGPSSTESESRKRSISKRKSHLDLLKLIMDGMTEACIKGGIEACYAAVSCVCTLL
notes: not shown: Flag tag
coprecipitation band, ratio when that with ERAP1 (1-434 aa) is designated as 100 [8]: 12%

B5: ERAP1 mutant (alanine mutant of Q165, D169 and Q173) (other)
chain: MEEILRKLQKEASGSKYKAIKESCTWALETLGGLDTIVKIPPHVLREKCLLPLQLALESKNVKLAQHALAGMQKLLSEERFVSMETDSDEKQLLNQILNAVKVTPSLNEDLQVEVMKVLLCITYTPTFDLNGSAVLKIAEVCIETYISSCHQRSINTAVRATLSAMLSALTLALRQRQENTIIENPDVPQDFGNQGSTVESLCDDVVSVLTVLCEKLQAAINDSQQLQLLYLECILSVLSSSSSSMHLHRRFTDLIWKNLCPALIVILGNPIHDKTITSAHTSSTSTSLESDSASPGVSDHGRGSGCSCTAPALSGPVARTIYYIAAELVRLVGSVDSMKPVLQSLYHRVLLYPPPQHRVEAIKIMKEILGSPQRLCDLAGPSSTESESRKRSISKRKSHLDLLKLIMDGMTEACIKGGIEACYAAVSCVCTLL
notes: not shown: Flag tag
binding result [9]: no binding
ratio of the coprecipitated band (ERAP1 1-434 = 100) [10]: 1
coprecipitation band, ratio when that with ERAP1 (1-434 aa) is designated as 100 [8]: 2%

B6: Q173A (other)
single chain: MEEILRKLQKEASGSKYKAIKESCTWALETLGGLDTIVKIPPHVLREKCLLPLQLALESKNVKLAQHALAGMQKLLSEERFVSMETDSDEKQLLNQILNAVKVTPSLNEDLQVEVMKVLLCITYTPTFDLNGSAVLKIAEVCIETYISSCHQRSINTAVRATLSQMLSDLTLALRQRQENTIIENPDVPQDFGNQGSTVESLCDDVVSVLTVLCEKLQAAINDSQQLQLLYLECILSVLSSSSSSMHLHRRFTDLIWKNLCPALIVILGNPIHDKTITSAHTSSTSTSLESDSASPGVSDHGRGSGCSCTAPALSGPVARTIYYIAAELVRLVGSVDSMKPVLQSLYHRVLLYPPPQHRVEAIKIMKEILGSPQRLCDLAGPSSTESESRKRSISKRKSHLDLLKLIMDGMTEACIKGGIEACYAAVSCVCTLL
notes: Construct named in the text, but absent from the list MOLECULES; its band ratios stand only on the sheet; also called alanine mutant of Q173 (Q173A)
ratio of the coprecipitated band (ERAP1 1-434 = 100) [11]: 52
ratio of the coprecipitated band (ERAP1 1-434 = 100) [10]: 79

B7: estrogen receptor α (ERα) (receptor)
chain: MTMTLHTKASGMALLHQIQGNELEPLNRPQLKIPLERPLGEVYLDSSKPAVYNYPEGAAYEFNAAAAANAQVYGQTGLPYGPGSEAAAFGSNGLGGFPPLNSVSPSPLMLLHPPPQLSPFLQPHGQQVPYYLENEPSGYTVREAGPPAFYRPNSDNRRQGGRERLASTNDKGSMAMESAKETRYCAVCNDYASGYHYGVWSCEGCKAFFKRSIQGHNDYMCPATNQCTIDKNRRKSCQACRLRKCYEVGMMKGGIRKDRRGGRMLKHKRQRDDGEGRGEVGSAGDMRAANLWPSPLMIKRSKKNSLALSLTADQMVSALLDAEPPILYSEYDPTRPFSEASMMGLLTNLADRELVHMINWAKRVPGFVDLTLHDQVHLLECAWLEILMIGLVWRSMEHPGKLLFAPNLLLDRNQGKCVEGMVEIFDMLLATSSRFRMMNLQGEEFVCLKSIILLNSGVYTFLSSTLKSLEEKDHIHRVLDKITDTLIHLMAKAGLTLQQQHQRLAQLLLILSHIRHMSNKGMEHLYSMKCKNVVPLYDLLLEMLDAHRLHAPTSRGGASVEETDQSHLATAGSTSSHSLQKYYITGEAEGFPATV
notes: Immunoprecipitated with anti-ERα antibody from cytoplasm or nuclear fractions
binding result [12]: binds
binding result [13]: binds
binding result [14]: binds

— patent US20140162952A1 (ONCOTHERAPY SCIENCE, published 2014)
